In patent publication US20240174727A1, “LONG-ACTING NATRIURETIC PEPTIDES AND USES THEREOF” (Eli Lilly and Company, priority 2022, published 2024):
Numbered stars: 1 amine (or outer) side, 2 acyl side, 3 side chain; on linkers, the order of the positions; unused ones are H or OH. Bridge positions count the residues as written; N and C are the ends. Square brackets hold non-standard residues; d marks the D form. Ends that are not written are not given here. * marks the point of attachment. thioacetal = thioacetal linkage between two cysteines (intrachain bond at the bracketed Cys); C20 diacid = O=C(O)CCCCCCCCCCCCCCCCCCC(=O)*; γGlu = O=C(O)[C@H](CCC(=O)[*:2])N[*:1]; 4Pal = N[C@@H](Cc1ccncc1)C(=O)O; βAla = NCCC(=O)O

T1: human NPRA (human, UniProt P16066 33-1061)
T1 sequence (looked up): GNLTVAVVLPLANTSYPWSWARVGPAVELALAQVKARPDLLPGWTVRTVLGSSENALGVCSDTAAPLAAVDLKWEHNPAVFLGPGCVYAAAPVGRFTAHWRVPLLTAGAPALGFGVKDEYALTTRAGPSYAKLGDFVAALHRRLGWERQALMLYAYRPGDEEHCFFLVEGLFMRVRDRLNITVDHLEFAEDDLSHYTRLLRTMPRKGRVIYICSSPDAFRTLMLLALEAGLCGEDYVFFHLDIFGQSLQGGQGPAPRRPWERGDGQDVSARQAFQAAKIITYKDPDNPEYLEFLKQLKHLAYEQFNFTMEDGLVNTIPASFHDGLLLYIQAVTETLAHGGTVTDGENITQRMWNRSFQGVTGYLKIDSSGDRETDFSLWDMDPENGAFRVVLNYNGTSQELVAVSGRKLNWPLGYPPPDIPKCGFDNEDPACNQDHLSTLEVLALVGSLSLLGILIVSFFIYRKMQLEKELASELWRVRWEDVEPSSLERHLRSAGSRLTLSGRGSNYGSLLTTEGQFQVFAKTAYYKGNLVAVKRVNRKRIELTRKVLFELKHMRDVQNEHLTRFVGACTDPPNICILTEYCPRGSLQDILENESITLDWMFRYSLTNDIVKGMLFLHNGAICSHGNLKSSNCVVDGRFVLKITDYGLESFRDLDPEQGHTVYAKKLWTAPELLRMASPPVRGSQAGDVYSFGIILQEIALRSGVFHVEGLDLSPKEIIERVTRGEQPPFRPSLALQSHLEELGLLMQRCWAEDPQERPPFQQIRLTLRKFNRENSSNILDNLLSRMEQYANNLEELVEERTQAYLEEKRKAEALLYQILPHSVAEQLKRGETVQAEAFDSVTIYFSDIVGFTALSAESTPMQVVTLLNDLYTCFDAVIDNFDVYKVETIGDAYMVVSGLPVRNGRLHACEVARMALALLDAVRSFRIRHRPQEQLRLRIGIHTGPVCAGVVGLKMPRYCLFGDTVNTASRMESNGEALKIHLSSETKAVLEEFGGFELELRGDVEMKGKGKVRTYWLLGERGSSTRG

T2: rat NPRA (rat, UniProt P18910 29-1057)
T2 sequence (looked up): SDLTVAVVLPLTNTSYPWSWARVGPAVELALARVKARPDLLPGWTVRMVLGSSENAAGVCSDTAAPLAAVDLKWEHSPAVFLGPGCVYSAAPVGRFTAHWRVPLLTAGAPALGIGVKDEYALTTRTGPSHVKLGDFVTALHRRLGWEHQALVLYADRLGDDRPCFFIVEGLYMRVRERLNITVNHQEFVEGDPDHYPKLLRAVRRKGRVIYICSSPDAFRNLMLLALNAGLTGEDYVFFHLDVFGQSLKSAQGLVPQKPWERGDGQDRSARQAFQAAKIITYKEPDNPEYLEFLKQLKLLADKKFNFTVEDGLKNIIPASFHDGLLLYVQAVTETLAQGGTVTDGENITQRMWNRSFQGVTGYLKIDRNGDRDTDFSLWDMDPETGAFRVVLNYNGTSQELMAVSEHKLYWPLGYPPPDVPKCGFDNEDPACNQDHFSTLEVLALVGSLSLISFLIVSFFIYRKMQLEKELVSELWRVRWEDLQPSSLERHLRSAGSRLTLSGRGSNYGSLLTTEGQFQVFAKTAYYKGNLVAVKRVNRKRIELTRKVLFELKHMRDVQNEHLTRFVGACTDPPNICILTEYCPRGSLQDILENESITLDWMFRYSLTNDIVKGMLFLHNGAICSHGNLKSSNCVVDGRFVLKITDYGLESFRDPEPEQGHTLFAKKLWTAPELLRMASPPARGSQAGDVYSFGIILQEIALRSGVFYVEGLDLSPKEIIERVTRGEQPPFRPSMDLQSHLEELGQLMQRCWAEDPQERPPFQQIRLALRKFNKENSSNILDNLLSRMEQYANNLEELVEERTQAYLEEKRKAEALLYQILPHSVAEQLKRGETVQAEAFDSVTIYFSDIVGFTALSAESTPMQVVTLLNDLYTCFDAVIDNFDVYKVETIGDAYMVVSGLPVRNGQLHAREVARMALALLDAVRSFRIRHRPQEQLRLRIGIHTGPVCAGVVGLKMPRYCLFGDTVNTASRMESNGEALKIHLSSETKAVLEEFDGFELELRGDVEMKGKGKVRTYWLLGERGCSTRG


Tests used:
human NPRA = biological target: T1, human NPRA; experiment: cell-based or functional assay
rat NPRA = biological target: T2, rat NPRA; experiment: cell-based or functional assay

Row | Binder | cGMP Assay (EC50, pM) w/BSA (human NPRA) [pM] | cGMP Assay (EC50, pM) w/Casein (human NPRA) [pM] | cGMP Assay (EC50, pM) w/BSA (rat NPRA) [pM] | cGMP Assay (EC50, pM) w/Casein (rat NPRA) [pM]
1 | SXRRSSCFGKRIDRIGHQSGLGCPSFRHGGKSSGAPPPS (HOOC-(CH2)18-CO-(γGlu)-EKEKEKG-(AEEA)8-S-4Pal-RRSS[CFGKRIDRIGHQSGLGC]PSFRHGGKSSGAPPPS-NH2; thioacetal linkage between the bracketed Cys) [Example 87] | 3380 | 621 | 463000 | 8870
2 | SXRRSSCFGGRIDRIGHQSGLGCPSFRHGGKSSGAPPPS (HOOC-(CH2)18-CO-(γGlu)-EKEKEKG-(AEEA)4-S-4Pal-RRSS[CFGGRIDRIGHQSGLGC]PSFRHGGKSSGAPPPS-NH2; thioacetal linkage between the bracketed Cys) [Example 83] | 38400 | 1040 | 860000 | 16700
3 | SXRRSSCFGGRIDRIGHQSGLGCPSFRHGGPPSXKPPPK (HOOC-(CH2)18-CO-(γGlu)-EKEKEKG-PEG24-S-4Pal-RRSS[CFGGRIDRIGHQSGLGC]PSFRHGGPPS-Aib-KPPPK-NH2; thioacetal linkage between the bracketed Cys) [Example 84] | 9730 | 1010 | 547000 | 24600
4 | {C20 diacid}-[γGlu]EKEKEKGS[4Pal]RRSSCFGRKIDRIGHQSGLGCPSFRHGGKSSGAPPPS-NH2 (bridge 15-31 via thioacetal) [Example 80] | 4750 | 234 | 364000 | 3550
5 | EK[βAla]RSSCFGKRIDRIGHQSGLGCPSFRHGGKSSGAPPPS-NH2 (bridge 7-23 via thioacetal; not fully specified (N-terminus)) [Example 90] | 19700 | 452 | 734000 | 13200
6 | EKXRSSCFGKRIDRIGHQSGLGCPSFRHGSPSSGAPPPS (HOOC-(CH2)18-CO-(γGlu)-EKEKEKG-PEG24-EK-βAla-RSS[CFGKRIDRIGHQSGLGC]PSFRHGSPSSGAPPPS-NH2; thioacetal linkage between the bracketed Cys) [Example 4] | 6180 | 813 | 519000 | 22500
7 | EKXRSSCFGKRIDRIGHQSGLGCPSFRHGGKSSGAPPPS (HOOC-(CH2)18-CO-(γGlu)-EKEKEKG-(AEEA)4-EK-βAla-RSS[CFGKRIDRIGHQSGLGC]PSFRHGGKSSGAPPPS-NH2; thioacetal linkage between the bracketed Cys) [Example 88] | 16300 | 520 | 1.05e+06 | 11400
8 | EKXRSSCFGKRIDRIGHQSGLGCPSFRHGGKSSGAPPPS (HOOC-(CH2)18-CO-(γGlu)-EKEKEKG-(AEEA)6-EK-βAla-RSS[CFGKRIDRIGHQSGLGC]PSFRHGGKSSGAPPPS-NH2; thioacetal linkage between the bracketed Cys) [Example 89] | 10800 | 806 | 819000 | 13800
9 | {C20 diacid}-[γGlu]EKEKEKGEK[βAla]RSSCFGGRIDRIGHYSGLGCPSFRHGGKSSGAPPPS-NH2 (bridge 15-31 via thioacetal) [Example 74] | 171000 | 1590 | 1.13e+06 | 5820
10 | {C20 diacid}-[γGlu]EKEKEKGEK[βAla]RSSCFGGRIDRIGHYSGLGCPSFRHGGKSSGAPPPS-NH2 (bridge 15-31 via thioacetal) [Example 76] | 79900 | 2620 | 607000 | 8280
11 | {C20 diacid}-[γGlu]EKEKEKGEK[βAla]RSSCFGGRIDRIGHYSGLGCPSFRHGGPSSGAPPPS-NH2 (bridge 15-31 via thioacetal) [Example 70] | 92500 | 1840 | 712000 | 11800
